For assay [1], the target named is T1, CD64 (FcγRI) (UniProt P12314 16-288, limits assumed). The assay can be described thus: solution competition SPR (Biacore). As for the experimental part: (§1) Binding to Fcγ receptors was analyzed using solution affinity surface plasmon resonance (ref Day E S, Cachero T G, Qian F, Sun Y, Wen D, Pelletier M, Hsu Y M, Whitty A. Selectivity of BAFF/BLyS and APRIL for binding to the TNF family receptors BAFFR/BR3 and BCMA. Biochemistry. 2005 Feb. 15; 44(6):1919-31.) The method utilizes conditions of so-called “mass-transport-limited” binding, in which the initial rate of ligand binding (protein binding to the senor chip) is proportional to the concentration of ligand in solution (ref BIApplications Handbook (1994) Chapter 6: Concentration measurement, pp 6-1-6-10, Pharmacia Biosensor AB). Under these conditions, binding of the soluble analyte (protein flowing over chip surface) to the immobilized protein on the chip is fast compared to the diffusion of the analyte into the dextran matrix on the chip surface. Therefore, the diffusion properties of the analyte and the concentration of analyte in solution flowing over the chip surface determine the rate at which analyte binds to the chip. In this experiment, the concentration of free Fc receptor in solution is determined by the initial rate of binding to a CM5 Biacore chip containing an immobilized IgG1 MAb. Into these Fc receptor solutions were titrated the stability engineered constructs (see Table 10.1 below). […] Initial binding rates were obtained from raw sensorgram data (FIG. 14). […] The results are shown in Table 10.1 and reported as the average of two titrations.
In general terms: SPR reads the build-up and loss of mass on a sensor chip optically.

Assay [2] concerns the target T1, CD64 (FcγRI). The assay can be described thus: solution competition SPR (Biacore); construct titrated into receptor, free receptor read on immobilized IgG1 MAb. As for the experimental part: as §1

B1: EAG2377 (hu5c8 IgG1 T299N) (antibody)
heavy: not shown
light: DIVLTQSPATLSVSPGERATISCRASQRVSSSTYSYMHWYQQKPGQPPKLLIKYASNLESGVPARFSGSGSGTDFTLTISSVEPEDFATYYCQHSWEIPPTFGGGTKLEIKRTVAAPSVFIFPPSDEQLKSGTASVVCLLNNFYPREAKVQWKVDNALQSGNSQESVTEQDSKDSTYSLSSTLTLSKADYEKHKVYACEVTHQGLSSPVTKSFNRGEC
As usually defined, the IC50 is the concentration at which inhibition is half-maximal. A low value points to higher potency. B1: the IC50 in assay [1] is 586 µM.

B2: YC403 (hu5c8 IgG4.P S228P, T299A, T307P, L309K, D399S, aglycosylated) (antibody)
heavy: QVQLVQSGAEVVKPGASVKLSCKASGYIFTSYYMYWVKQAPGQGLEWIGEINPSNGDTNFNEKFKSKATLTVDKSASTAYMELSSLRSEDTAVYYCTRSDGRNDMDSWGQGTLVTVSSASTKGPSVFPLAPCSRSTSESTAALGCLVKDYFPEPVTVSWNSGALTSGVHTFPAVLQSSGLYSLSSVVTVPSSSLGTKTYTCNVDHKPSNTKVDKRVESKYGPPCPPCPAPEFLGGPSVFLFPPKPKDTLMISRTPEVTCVVVDVSQEDPEVQFNWYVDGVEVHNAKTKPREEQFNSAYRVVSVLPVKHQDWLNGKEYKCKVSNKGLPSSIEKTISKAKGQPREPQVYTLPPSQEEMTKNQVSLTCLVKGFYPSDIAVEWESNGQPENNYKTTPPVLSSDGSFFLYSRLTVDKSRWQEGNVFSCSVMHEALHNHYTQKSLSLSLG
light: DIVLTQSPATLSVSPGERATISCRASQRVSSSTYSYMHWYQQKPGQPPKLLIKYASNLESGVPARFSGSGSGTDFTLTISSVEPEDFATYYCQHSWEIPPTFGGGTKLEIKRTVAAPSVFIFPPSDEQLKSGTASVVCLLNNFYPREAKVQWKVDNALQSGNSQESVTEQDSKDSTYSLSSTLTLSKADYEKHKVYACEVTHQGLSSPVTKSFNRGEC
modifications: N-terminal Q largely converted to pyroglutamic acid (mass spectrometry)
notes: copies: 2 + 2
For B2, in assay [2], the IC50 amounted to 434 µM.

B3: YC401 (hu5c8 IgG4.P S228P, T299A, T307P, D399S, aglycosylated) (antibody)
heavy: QVQLVQSGAEVVKPGASVKLSCKASGYIFTSYYMYWVKQAPGQGLEWIGEINPSNGDTNFNEKFKSKATLTVDKSASTAYMELSSLRSEDTAVYYCTRSDGRNDMDSWGQGTLVTVSSASTKGPSVFPLAPCSRSTSESTAALGCLVKDYFPEPVTVSWNSGALTSGVHTFPAVLQSSGLYSLSSVVTVPSSSLGTKTYTCNVDHKPSNTKVDKRVESKYGPPCPPCPAPEFLGGPSVFLFPPKPKDTLMISRTPEVTCVVVDVSQEDPEVQFNWYVDGVEVHNAKTKPREEQFNSAYRVVSVLPVLHQDWLNGKEYKCKVSNKGLPSSIEKTISKAKGQPREPQVYTLPPSQEEMTKNQVSLTCLVKGFYPSDIAVEWESNGQPENNYKTTPPVLSSDGSFFLYSRLTVDKSRWQEGNVFSCSVMHEALHNHYTQKSLSLSLG
light: DIVLTQSPATLSVSPGERATISCRASQRVSSSTYSYMHWYQQKPGQPPKLLIKYASNLESGVPARFSGSGSGTDFTLTISSVEPEDFATYYCQHSWEIPPTFGGGTKLEIKRTVAAPSVFIFPPSDEQLKSGTASVVCLLNNFYPREAKVQWKVDNALQSGNSQESVTEQDSKDSTYSLSSTLTLSKADYEKHKVYACEVTHQGLSSPVTKSFNRGEC
modifications: N-terminal Q largely converted to pyroglutamic acid (mass spectrometry)
notes: copies: 2 + 2
In assay [2], B3 registered an IC50 of 377 µM.

B4: EAG2380 (hu5c8 IgG1 T299F) (antibody)
heavy: not shown
light: DIVLTQSPATLSVSPGERATISCRASQRVSSSTYSYMHWYQQKPGQPPKLLIKYASNLESGVPARFSGSGSGTDFTLTISSVEPEDFATYYCQHSWEIPPTFGGGTKLEIKRTVAAPSVFIFPPSDEQLKSGTASVVCLLNNFYPREAKVQWKVDNALQSGNSQESVTEQDSKDSTYSLSSTLTLSKADYEKHKVYACEVTHQGLSSPVTKSFNRGEC
As to B4, the concentration for half-maximal inhibition (IC50) in assay [1] came to 345 µM.

B5: EAG2389 (hu5c8 IgG1 T299Q) (antibody)
heavy: not shown
light: DIVLTQSPATLSVSPGERATISCRASQRVSSSTYSYMHWYQQKPGQPPKLLIKYASNLESGVPARFSGSGSGTDFTLTISSVEPEDFATYYCQHSWEIPPTFGGGTKLEIKRTVAAPSVFIFPPSDEQLKSGTASVVCLLNNFYPREAKVQWKVDNALQSGNSQESVTEQDSKDSTYSLSSTLTLSKADYEKHKVYACEVTHQGLSSPVTKSFNRGEC
On to B5, for which the half-maximal inhibitory concentration (IC50) in assay [1] stood at 455 µM.

B6: EAG2379 (hu5c8 IgG1 T299E) (antibody)
heavy: not shown
light: DIVLTQSPATLSVSPGERATISCRASQRVSSSTYSYMHWYQQKPGQPPKLLIKYASNLESGVPARFSGSGSGTDFTLTISSVEPEDFATYYCQHSWEIPPTFGGGTKLEIKRTVAAPSVFIFPPSDEQLKSGTASVVCLLNNFYPREAKVQWKVDNALQSGNSQESVTEQDSKDSTYSLSSTLTLSKADYEKHKVYACEVTHQGLSSPVTKSFNRGEC
B6: the concentration for half-maximal inhibition (IC50) in assay [1] amounted to 196 µM.

B7: IgG1 T299A (aglycosylated hu5c8 IgG1) (antibody)
heavy: not shown
light: DIVLTQSPATLSVSPGERATISCRASQRVSSSTYSYMHWYQQKPGQPPKLLIKYASNLESGVPARFSGSGSGTDFTLTISSVEPEDFATYYCQHSWEIPPTFGGGTKLEIKRTVAAPSVFIFPPSDEQLKSGTASVVCLLNNFYPREAKVQWKVDNALQSGNSQESVTEQDSKDSTYSLSSTLTLSKADYEKHKVYACEVTHQGLSSPVTKSFNRGEC
notes: also called IgG1 agly (T299A); agly IgG1
B7 registered a 50% inhibitory concentration (IC50) in assay [2] of 205 µM.

B8: EC331 (hu5c8 IgG4.P T299K, T307P, IgG4 CH2/IgG1 CH3 chimera, aglycosylated) (antibody)
heavy: QVQLVQSGAEVVKPGASVKLSCKASGYIFTSYYMYWVKQAPGQGLEWIGEINPSNGDTNFNEKFKSKATLTVDKSASTAYMELSSLRSEDTAVYYCTRSDGRNDMDSWGQGTLVTVSSASTKGPSVFPLAPCSRSTSESTAALGCLVKDYFPEPVTVSWNSGALTSGVHTFPAVLQSSGLYSLSSVVTVPSSSLGTKTYTCNVDHKPSNTKVDKRVESKYGPPCPPCPAPEFLGGPSVFLFPPKPKDTLMISRTPEVTCVVVDVSQEDPEVQFNWYVDGVEVHNAKTKPREEQFNSKYRVVSVLPVLHQDWLNGKEYKCKVSNKGLPSSIEKTISKAKGQPREPQVYTLPPSRDELTKNQVSLTCLVKGFYPSDIAVEWESNGQPENNYKTTPPVLDSDGSFFLYSKLTVDKSRWQQGNVFSCSVMHEALHNHYTQKSLSLSPG
light: DIVLTQSPATLSVSPGERATISCRASQRVSSSTYSYMHWYQQKPGQPPKLLIKYASNLESGVPARFSGSGSGTDFTLTISSVEPEDFATYYCQHSWEIPPTFGGGTKLEIKRTVAAPSVFIFPPSDEQLKSGTASVVCLLNNFYPREAKVQWKVDNALQSGNSQESVTEQDSKDSTYSLSSTLTLSKADYEKHKVYACEVTHQGLSSPVTKSFNRGEC
modifications: N-terminal Q largely converted to pyroglutamic acid (mass spectrometry)
notes: copies: 2 + 2
As for B8, the IC50 in assay [2] amounted to 2600 µM.

B9: IgG4.P T299A (aglycosylated hu5c8 IgG4.P S228P, T299A) (antibody)
heavy: not shown
light: DIVLTQSPATLSVSPGERATISCRASQRVSSSTYSYMHWYQQKPGQPPKLLIKYASNLESGVPARFSGSGSGTDFTLTISSVEPEDFATYYCQHSWEIPPTFGGGTKLEIKRTVAAPSVFIFPPSDEQLKSGTASVVCLLNNFYPREAKVQWKVDNALQSGNSQESVTEQDSKDSTYSLSSTLTLSKADYEKHKVYACEVTHQGLSSPVTKSFNRGEC
notes: also called agly IgG4.P; IgG4.P agly (S228P, T299A); copies: 2 + 2
Regarding B9, the IC50 in assay [2] turned out to be 739 µM.

B10: EAG2378 (hu5c8 IgG1 T299R) (antibody)
heavy: not shown
light: DIVLTQSPATLSVSPGERATISCRASQRVSSSTYSYMHWYQQKPGQPPKLLIKYASNLESGVPARFSGSGSGTDFTLTISSVEPEDFATYYCQHSWEIPPTFGGGTKLEIKRTVAAPSVFIFPPSDEQLKSGTASVVCLLNNFYPREAKVQWKVDNALQSGNSQESVTEQDSKDSTYSLSSTLTLSKADYEKHKVYACEVTHQGLSSPVTKSFNRGEC
In assay [1], B10 yielded a 50% inhibitory concentration (IC50) of 5970 µM.

The record behind these values is patent US20210238289A1 (Biogen, published 2021).
